Values belong to the binder of their own block, whether it stands above or below them.
Assays:
[1] = molecular target: T1, PP2A scaffold Aα-subunit (full-length A-subunit) (UniProt P30153 1-589); assay: assembly and purification of the core enzyme; stable PP2A core enzyme assembled from A-subunit and PP2Ac and purified as previously described [17]; conditions: both partners purified
T1 construct: PP2A scaffold Aα-subunit, 15 HEAT repeats; called the full-length A-subunit; the methods say that residues 9–54 were retained in all constructs, and the FRET fusion is Aα (9–589); The true N-terminal limit may be residue 9; also called scaffold subunit

[2] = molecular target: PP2A core enzyme with the A-subunit mutant A_R183E ( |  ("mammalian …, UniProt P30153 1-589; P67775 1-309, A_R183E); assay: cell-based or functional assay
[3] = molecular target: PP2A core enzyme with the A-subunit mutant A_R258E ( |  ("mammalian …, UniProt P30153 1-589; P67775 1-309, A_R258E); assay: cell-based or functional assay
[4] = molecular target: T2, PP2A catalytic Cα-subunit (free PP2Ac) ( ("mammalian PP2Ac"), UniProt P67775 1-309); assay: ITC; 200 µM LCMT-1 (pre-loaded with SAH) titrated to 20 µM PP2A; 25°C; 20 mM Tris pH 7.5, 50 mM NaCl, 50 µM MnCl2; VP-ITC; conditions: both partners purified
T2 construct: PP2A Cα-subunit (PP2Ac); negligible methylation as purified; also called C-subunit; full-length PP2Ac

[5] = molecular target: T2, PP2A catalytic Cα-subunit (free PP2Ac); assay: pull-down; core enzymes assembled on the maltose resin with the immobilized MBP-tagged truncated A-subunits; conditions: both partners purified
[6] = molecular target: the molecule itself; assay: SEC; gel filtration chromatography of wild type and mutant A-subunits

- binding result [1]: binds
B1: PP2Ac with internal deletion of five residues of the PP2Ac-tail (PP2AcΔ294–298) (enzyme, UniProt P67775 1-309, looked up)
chain: MDEKVFTKELDQWIEQLNECKQLSESQVKSLCEKAKEILTKESNVQEVRCPVTVCGDVHGQFHDLMELFRIGGKSPDTNYLFMGDYVDRGYYSVETVTLLVALKVRYRERITILRGNHESRQITQVYGFYDECLRKYGNANVWKYFTDLFDYLPLTALVDGQIFCLHGGLSPSIDTLDHIRALDRLQEVPHEGPMCDLLWSDPDDRGGWGISPRGAGYTFGQDISETFNHANGLTLVSRAHQLVMEGYNWCHDRNVVTIFSAPNYCYRCGNQAAIMELDDTLKYSFLQFDPAPHVTRRTPDYFL
notes: Probably made as the wild-type Cα-subunit (insect cells, His8 tag cleaved); also called shortened PP2Ac

- Km of methylation of the PP2A core enzyme by LCMT-1 (3H-SAM), fold increase against the wild-type core enzyme [2]: 1.5 fold
- Km of methylation of the PP2A core enzyme by LCMT-1 (3H-SAM), fold increase against the wild-type core enzyme [3]: 2 fold
- fold reduction of binding affinity against the core enzyme [4]: ~4 fold
- stoichiometry N [4]: < 1
B2: PP2A-specific leucine carboxyl methyltransferase 1 (LCMT-1) (enzyme, human, UniProt Q9UIC8 1-334, looked up)
chain: MATRQRESSITSCCSTSSCDADDEGVRGTCEDASLCKRFAVSIGYWHDPYIQHFVRLSKERKAPEINRGYFARVHGVSQLIKAFLRKTECHCQIVNLGAGMDTTFWRLKDEDLLPSKYFEVDFPMIVTRKLHSIKCKPPLSSPILELHSEDTLQMDGHILDSKRYAVIGADLRDLSELEEKLKKCNMNTQLPTLLIAECVLVYMTPEQSANLLKWAANSFERAMFINYEQVNMGDRFGQIMIENLRRRQCDLAGVETCKSLESQKERLLSNGWETASAVDMMELYNRLPRAEVSRIESLEFLDEMELLEQLMRHYCLCWATKGGNELGLKEITY
notes: human LCMT-1, cloned into pET15b; For ITC it was pre-loaded with SAH (0.5 mM, 10 min, 37°C)

- binding result [5]: binds
B3: A-subunit mutant missing HEAT repeats 2–10 (AΔHR2–10, mini-A) (domain or fragment, UniProt P30153 9-589, looked up)
chain: SLYPIAVLIDELRNEDVQLRLNSIKKLSTIALALGVERTRSELLPFIVELAEDAKWRVRLAIIEYMPLLAGQLGVEYFDEKLNSLCMAWLVDHVYAIREAATSNLKKLVEKFGKEWAHATIIPKVLAMSGDPNYLHRMTTLFCINVLSEVCGQDITTKHMLPTVLRMAGDPVANVRFNVAKSLQKIGPILDNSTLQSEVKPILEKLTQDQDVDVKYFAQEALTVLSLA
notes: the FRET fusion is Aα (9–589); source: E. coli DH5α, MBP-tagged, immobilised on maltose resin

- binding result [5]: binds
B4: A-subunit mutant missing HEAT repeats 2–8 (AΔHR2–8) (domain or fragment, UniProt P30153 9-589, looked up)
chain: SLYPIAVLIDELRNEDVQLRLNSIKKLSTIALALGVERTRSELLPFIKELVSDANQHVKSALASVIMGLSPILGKDNTIEHLLPLFLAQLKDECPEVRLNIISNLDCVNEVIGIRQLSQSLLPAIVELAEDAKWRVRLAIIEYMPLLAGQLGVEFFDEKLNSLCMAWLVDHVYAIREAATSNLKKLVEKFGKEWAHATIIPKVLAMSGDPNYLHRMTTLFCINVLSEVCGQDITTKHMLPTVLRMAGDPVANVRFNVAKSLQKIGPILDNSTLQSEVKPILEKLTQDQDVDVKYFAQEALTVLSLA
notes: as for B3

B5: A-subunit mutant A_D61A/E62K/E100A/E101K (natural protein, UniProt P30153 1-589, looked up)
chain: MAAADGDDSLYPIAVLIDELRNEDVQLRLNSIKKLSTIALALGVERTRSELLPFLTDTIYAKDEVLLALAEQLGTFTTLVGGPEYVHCLLPPLESLATVAKTVVRDKAVESLRAISHEHSPSDLEAHFVPLVKRLAGGDWFTSRTSACGLFSVCYPRVSSAVKAELRQYFRNLCSDDTPMVRRAAASKLGEFAKVLELDNVKSEIIPMFSNLASDEQDSVRLLAVEACVNIAQLLPQEDLEALVMPTLRQAAEDKSWRVRYMVADKFTELQKAVGPEITKTDLVPAFQNLMKDCEAEVRAAASHKVKEFCENLSADCRENVIMSQILPCIKELVSDANQHVKSALASVIMGLSPILGKDNTIEHLLPLFLAQLKDECPEVRLNIISNLDCVNEVIGIRQLSQSLLPAIVELAEDAKWRVRLAIIEYMPLLAGQLGVEFFDEKLNSLCMAWLVDHVYAIREAATSNLKKLVEKFGKEWAHATIIPKVLAMSGDPNYLHRMTTLFCINVLSEVCGQDITTKHMLPTVLRMAGDPVANVRFNVAKSLQKIGPILDNSTLQSEVKPILEKLTQDQDVDVKYFAQEALTVLSLA
notes: PP2A scaffold Aα-subunit, multiple mutant D61A/E62K/E100A/E101K; Probably made as the wild-type A-subunit
- binding result [6]: binds
